Results: patent US5814612A, “Retinol derivatives and uses thereof” (priority 1992, dated 1998)
Entries after “also recorded” stand apart in the source; their conditions may differ.

B1: IFN-gamma: mouse recombinant IFN-gamma (protein, UniProt P01580 23-155, looked up)
Interferon gamma: HGTVIESLESLNNYFNSSGIDVEEKSLFLDIWRNWQKDGDMKILQSQIISFYLRLFEVLKDNQAISNNISVIESHLITTFFSNSKAKKDAFMSIAKFEVNNPQVQRQAFNELIRVVHQLLPESSLRKRKRSRC
B2: IL-4: murine rIL-4 (protein, UniProt P07750 21-140, looked up)
Interleukin-4: HIHGCDKNHLREIIGILNEVTGEGTPCTEMDVPNVLTATKNTTESELVCRASKVLRIFYLKHGKTPCLKKNSSVLMELQRLFRAFRCLDSSISCTMNESKSTSLKDFLESLKSIMQMDYS
B3: IL-1: Human recombinant IL-1-α (protein, UniProt P01583 113-271, looked up)
Interleukin-1 alpha: SAPFSFLSNVKYNFMRIIKYEFILNDALNQSIIRANDQYLTAAALHNLDEAVKFDMGAYKSSKDDAKITVILRISKTQLYVTAQDEDQPVLLKEMPEIPKTITGSETNLLFFWETHGTKNYFTSVAHPNLFIATKQDYWVCLAGGPPSITDFQILENQA

Tests used:
[1] = test system: 5/2 cells; assay type: in vitro ADME, human
Procedure: 5/2 cells (10^6 cells in 10 ml HB 101 medium) were incubated with all-trans-[^3 H] retinol (10 uCe/ml). After 24 hours, retinoids were extracted from the washed cell pellet and unlabeled marker retinoids were added. The crude extract was loaded on an analytical reversed-phase C-18 column. Retinoids were eluted with the shown linear gradient of water/methanol/chloroform. The flow rate was 0.5 ml/min. DPM were determined with an on line scintillation counter. Reference retinoids were the all-trans forms of 0: 3,4-didehydroretinoic acid, 1: all-trans-retinoic acid, 2: 3,4-didehydroretinol, 3: retinol, 4: retinyl linoleate, 5: retinyl oleate, 6: retinyl palmitate. Shaded area corresponds to P3. Cross-hatched area corresponds to P1.
Lymphoblastoid 5/2 cells grown in the presence of 10^-6 M retinol were spiked with ^3 H-labeled retinol. After 16 hours the cell pellet was delipidated according to the method of McLean et al. and separated on a reversed phase C-18 HPLC column (FIG. 7). […] Three peaks, P1, P2 and P3, could not be immediately identified. One peak eluting at 36-39 minutes (corresponding 83% methanol 7% water) provisionally called P3, but now known as 14HRR, was unusual because unlike P1 eluting at 31-34 minutes, its relative amount increased when the retinol concentration was lowered or when retinol was given to the cells bound to RBP. […] Since HeLa cells contain 14HRR, these cells were also used. 50 ml of packed HeLa cells (10^10 cells) yielded 25 OD348nmunits of pure P3 after the following sequence of steps: 1. Growth in the presence of 10^-5 M retinol; 2. Extraction of cell pellet according to McClean et al. (13); 3. Preparative C-18 HPLC column eluted with a water/methanol gradient; 4. semipreparative C18 HPLC column eluted with a water/acetonitrile gradient; 5. analytical C4 column eluted with a water/methanol gradient.

[2] = test system: thymocytes; assay: Proliferation of anti-CD3 activated thymocytes in serum-free ITLB medium; assay type: cell-based, BALB/c mouse; settings: for ability of cytokine to replace retinol: absence of retinol; for growth-stimulating effect, anti-CD3, no Retinol / growth-stimulating effect, anti-CD3, 10^-6 M Retinol: 3 days, IL-1 10, IL-2 2, IL-4 5, IL-6 5, IFN-gamma 40, TNF-alpha 12, IL-2 + IL-4 2/5 U/ml; for growth-stimulating effect, anti-CD3, 10^-6 M Retinol: with 10^-6 M retinol (head), Retinol: stimulating agent none
Procedure: FIG. 14A: Purified BALB/c thymocytes were activated with immobilized anti-CD3e antibody and cultivated for four days in ITLB medium with or without retinol (3×10^-6 M), 14HRR (6×10^-7 M) (fresh 14HRR was added every 12 hours), human serum (3%) or FCS (10%) at the cellular densities shown. Proliferation was assayed by tritiated thymidine incorporation into cellular DNA.
FIG. 14B: BALB/c thymocytes (10^6 /ml) were added to microtiter plates coated with titrated amounts of anti-CD3e antibody with […] retinol or without, as indicated. Proliferation was measured in hexaduplicate wells on day 3 by ^3 H thymidine incorporation assay.
Purified thymocytes (5×10^5 cells/well) were stimulated by TCR crosslinking with immobilized anti-CD3e antibody (FIG. 15A) or 0.4 μg/ml Con A (FIG. 15B) in serum-free ITLB medium. The indicated amounts of retinoids were added either once at the beginning of the experiment (marked as "1×") or every 12 hours thereafter (marked as "6×"). DNA synthesis was measured after 72 hours by tritiated thymidine uptake as described.
Purified thymocytes (10^5 cells/well) were activated with anti-CD3 antibody in ITLB medium with or without retinol (3×10^-6 M), 14HRR (6×10^-7, added every 12 hours or human serum (3%)). DNA synthesis was measured daily by a 4 hour pulse of tritiated thymidine.
Thymocytes (5×10^4 /well) were activated by immobilized anti-CD3 mAb in medium ITLB. Retinol (2×10^-6 M) was added at initiation of culture, or delayed by 12 hours and 24 hours, respectively, or omitted altogether. ^3 H thymidine pulses of 4 hours were used to measure DNA synthesis of hexaduplicate wells.
Thymuses of 3 to 6-week-old BALB/c mice were teased in serum-free RPMI medium supplemented with 1% BSA, 10^-6 M linoleic acid and antibiotics. Depletion of accessory cells was achieved by two cycles of complement-dependent lysis with a mixture of anti-IA^d (5 μg/ml) and anti-IE^d (1:500 diluted ascites fluid). Briefly, cells were incubated on ice for 30 minutes with Ia antibodies, spun down, resuspended in 1:40 diluted rabbit complement, and incubated at 37° C. for 45 minutes. Incubations and two subsequent washes were carried out with RPMI medium containing 1% BSA. Cell viability was evaluated by trypan blue dye exclusion. To determine the extent of depletion of accessory cells, samples were stained with FITC-conjugated anti-Fc receptor antibody and analyzed by flow cytometry on a FACScan instrument (Becton Dickinson).
Cells were cultured in serum-free medium, referred to as ITLB, containing RPMI 1640 supplemented with 8×10^-7 M insulin (5 μg/ml), 7×10^-8 M transferrin (5 μg/ml), 2×10^-6 M linoleic acid, 2×10^-6 M delipidated BSA (0.12 mg/ml), 2 mM L-glutamine, 1 mM sodium pyruvate and antibiotics. They were seeded into 96-well flat-bottom plates at varying cellular densities in a final volume of 100 μl. In control experiments, cells were cultured in medium containing 10% FCS or 3% human serum and 5×10^-5 M 2ME. T cells and thymocytes were activated with immobilized, purified anti-mAb CD3e or by the addition of Con A in the presence or absence of different concentrations of retinoids. Unless indicated otherwise, retinoids were replenished every 12 hours to maintain a reasonably constant concentration of these labile compounds in culture. […] Cultures were carried out in duplicate. Plates were incubated at 37° C. in a humidified 5% CO2 atmosphere. Cellular proliferation was determined by [^3 H] thymidine uptake (0.5 uCi/well; New England Nuclear, Boston, Mass.) after the incubation times indicated for each experiment with a 4 hour labeling pulse.

[3] = test system: T cells; assay: T cell activation and proliferation, retinol cofactor requirement; assay type: cell-based, murine
Procedure: They were seeded into 96-well flat-bottom plates at varying cellular densities in a final volume of 100 μl. In control experiments, cells were cultured in medium containing 10% FCS or 3% human serum and 5×10^-5 M 2ME. […] Cultures were carried out in duplicate. Plates were incubated at 37° C. in a humidified 5% CO2 atmosphere. Cellular proliferation was determined by [^3 H] thymidine uptake (0.5 uCi/well; New England Nuclear, Boston, Mass.) after the incubation times indicated for each experiment with a 4 hour labeling pulse. Cells were harvested onto glass filter and [^3 H]TdR incorporation was determined by liquid scintillation counting. The data presented are the means of duplicate or six replicate cultures. The restriction to duplicate measurements was necessary to conserve scarce 14HRR. […] Each experiment was repeated at least twice.

Molecule	ability to substitute for retinol in T cell activation (words) [3]	ability of cytokine to replace retinol [2]	growth-stimulating effect, anti-CD3, no Retinol [2]	growth-stimulating effect, anti-CD3, 10^-6 M Retinol [2]	also measured
CC1=C(/C=C/C(C)=C/C=C/C(C)=C/C(=O)O)C(C)(C)CC=C1 [3,4-didehydroretinol acid, 3,4-didehydroretinoic acid]	–	–	–	–	detection as metabolite of retinol [1]: not detectable
CC1=C(/C=C/C(C)=C/C=C/C(C)=C/CO)C(C)(C)CC=C1 [3,4-didehydroretinol]	–	–	–	–	detection as metabolite of retinol [1]: not detectable
CC1=C(/C=C/C(C)=C/C=C/C(C)=C\CO)C(C)(C)CCC1 [13-cis-retinol]	can substitute for retinal	–	–	–	effectiveness relative to retinol ([2]; anti-CD3, 14HRR at 12 hour intervals): equally effective as all-trans retinol
IL-6: hrIL-6	–	None of the four interleukins, IL-1, IL-2, IL-4 or IL-6, was capable of overcoming the requirement for retinal; also recorded: none of the interleukins tested (IL-1, IL-2, IL-4 and IL-6) nor TNF-alpha are substitutes for retinol	1,005 ± 815 CPM	130,590 ± 25,803 CPM	–
TNF-alpha	cannot be satisfied by retinoic acid or interleukins 1, 2, 4 and 6, and TNF-alpha	none of the interleukins tested (IL-1, IL-2, IL-4 and IL-6) nor TNF-alpha are substitutes for retinol	464 ± 95 CPM	122,905 ± 11,577 CPM	ability of cytokine to replace retinol ([2]; listed as TNF-α): does not
B1	can substitute for retinol	can circumvent the retinol requirement and initiate durable proliferation in the absence of retinol or 14HRR	81,876 ± 11,868 CPM	220,359 ± 27,726 CPM	ability of cytokine to replace retinol ([2]; listed as interferon-gamma): can sustain thymocyte proliferation in the absence of retinol; also recorded: quite efficient in anti-CD3-mediated activation in the absence of retinol; effect of cytokine combined with retinol [2]: strong additive effects; effect of cytokine combined with retinol ([2]; listed as Interferon-gamma): clear additive effect with retinol
B2	–	None of the four interleukins, IL-1, IL-2, IL-4 or IL-6, was capable of overcoming the requirement for retinal; also recorded: none of the interleukins tested (IL-1, IL-2, IL-4 and IL-6) nor TNF-alpha are substitutes for retinol	991 ± 105 CPM	115,849 ± 20,630 CPM	–
B3	–	None of the four interleukins, IL-1, IL-2, IL-4 or IL-6, was capable of overcoming the requirement for retinal; also recorded: none of the interleukins tested (IL-1, IL-2, IL-4 and IL-6) nor TNF-alpha are substitutes for retinol	959 ± 30 CPM	118,924 ± 3,051 CPM	–
